Test results published in US12246067B2, “Neoantigens and uses thereof” (priority 2018, dated 2025).

Experiments:
HLA-A02:01 [1] = molecular target: T1, HLA-A02:01 (Homo sapiens, UniProt P04439, D140Y/D185E/D98H/E176V/E277Q/G131W/G231S/I119V/I121R/I166T/I218V/L300P/L318F/N151K/N90K/P208A/P217A/Q86G/Q94H/R138H/R169H/T345S); experiment: Stability of neoepitopes with the HLA allele; format: binding; conditions: HLA allele A02.01; mutant KRAS peptides (Example 9)
Procedure: (§1) Multiple peptides containing the neoepitopes in the table below were expressed or loaded onto antigen presenting cells (APCs). Mass spectrometry was then performed and the affinity of the neoepitopes for the indicated HLA alleles and stability of the neoepitopes with the HLA alleles was determined.

HLA-A02:01 [2] = molecular target: T1, HLA-A02:01; experiment: Affinity of neoepitopes for the indicated HLA allele; format: binding; conditions: HLA allele A02.01; mutant KRAS peptides (Example 9)
Procedure: as §1

humans = conditions: cited from earlier work
[3] = tested on: ovarian carcinoma patients; conditions: poly-ICLC in combination with a NYESO-1 peptide vaccine (in addition to Montanide); phase 1 study; cited from earlier work

Row | Substance | Measured stability (HLA-A02:01 [1]) [h] | Measured Affinity (HLA-A02:01 [2]) [nM] | CD4+ and CD8+ responses in humans (humans) | Patients showing induction of CD4+ and CD8+ T cell, as well as antibody responses to the peptide [3] [%]
1 | LVVVGACGV | 0.6 | 667.1 |  | 
2 | LVVVGADGV | 0.0 | 977.4 |  | 
3 | LVVVGAVGV | 0.6 | 682.5 |  | 
4 | poly-ICLC |  |  | can induce durable CD4^+ and CD8^+ responses | > 90
